Assay results published in patent publication US20230414780A1 (VECT HORUS, published 2023).
Where a chain is given by its changes, count along the chain named.

B1: VHH A18 (C5^V18) (VHH)
VHH: EVQLVESGGGVVQPGGSLKLSCVASGTDFSINFIRWYRQAPGKQREFVAGFTATGNTNYADSMKGRFTISRDNTKNAVYLQIDSLKPEDTAVYYCYMVDKWGQGTQVTVSS
B2: C5^V30 (VHH)
VHH: B1 VHH with F29K, V98L
B3: C5^h25 (VHH)
VHH: EVQLVESGGGVVQPGGSLRLSCAASGTDFSINFIRWVRQAPGKGLEFVAGFTATGNTNYADSVKGRFTISRDNAKNTLYLQIDSLRPEDTAVYYCYMLDKWGQGTQVTVSS
B4: VHH A8 (C5^V8) (VHH)
VHH: B1 VHH with V98L, D99A
B5: C5^V32 (VHH)
VHH: B1 VHH with R38S, F67L, V98L, D99G
B6: C5^V16h20 (VHH)
VHH: B3 VHH with V37Y, T77A, L78V, I82M, D83N, M97I
B7: C5^V31 (VHH)
VHH: B1 VHH with F29R, V98L
B8: B8^V36 (VHH)
VHH: EVQLVESGGGVVQPGGSLRLSCAASGEIFSINVMRWYRQAPGKQREWVAGFTRDGSTNYPDSAKGRFTISRDNAKNTVYLQIDSLKPEDTAVYYCYMLDTWGQGTQVTVSS
B9: B8^V12 (VHH)
VHH: B8 VHH with S30Y, V33F
B10: VHH D (H3) (VHH)
VHH: EVQLVESGGGEVQPGGSLKLSCVASGTDFSINFVRWYRQRPGKQREWVAGFTANGDTNYPDSMKGRFTISRDNAKNTVYLQINSLKSEDTAVYYCYMLDNWGQGTQVTVSS
B11: B8^V1 (VHH)
VHH: B8 VHH with S25D, V33F
B12: C5^V13h20 (VHH)
VHH: B3 VHH with V37Y, T52S, T77A, L78V, I82M, D83N
B13: C5^h22 (VHH)
VHH: B3 VHH with V37Y, L45R, I82M, D83N
B14: C5^h20 (VHH)
VHH: B3 VHH with V37Y, T77A, L78V, I82M, D83N
B15: VHH A16 (C5^V16) (VHH)
VHH: B1 VHH with M97I, V98L
B16: C5^h9 (VHH)
VHH: B3 VHH with V37Y, I82M, D83N
B17: A9a (VHH)
VHH: QVQLVQSGGGLVQAGGSLRLSCAASGSIFLINDMGWYRQAPGKQRELVAVRGGSTKYGDSVKGRFTISRDDAKNTVYLQMNSLKPEDTAVYYCHRESGLGSSEYWGQGTQVTVSS
B18: B4a (VHH)
VHH: EVQLVESGGGLVQAGGSLRLSCTASGRTVSNYRMGWFRQTPGKEREFVAAIAWAGGSLTYADSVKGRFTISRDNAKNTVYLQMNSLEPTDTAVYYCKGSRIFPTRDYWGKGTQVTVSS
B19: B8^V25 (VHH)
VHH: B8 VHH with V33F, G50A
B20: B8^V30 (VHH)
VHH: B8 VHH with V33F, L98Q
B21: B8^V28 (VHH)
VHH: B8 VHH with V33F, N58F

molecular target: T1, human TfR ectodomain fused to a mouse IgG1 Fc fragment (human, UniProt P02786 89-760); experiment: SPR, at equilibrium
T1 construct: extracellular domain; ectodomain fused to the N-terminal end of the Fc, made in-house; not shown: mouse IgG1 Fc fragment
Experimental: (§1) Binding properties of some VHHs were also evaluated using Surface Plasmon Resonance (SPR) experiments. The human, mouse and rhesus monkey TfR (having respectively GeneBank number NM_003234.2, NM_011638, NC_041755.1) ectodomains were fused to the N-terminal end of a mouse IgG1 Fc fragment and the recombinant proteins were produced and purified in-house. Interaction of VHHs with the receptors was tested using a Biacore T200 (GE Healthcare). Receptors were immobilized on an HC 1500M or a CM5 sensor chip (Xantec) either directly or on an anti-mouse IgG previously immobilized. VHHs were injected over flowcell by using the single-cycle kinetic or the multiple-cycle kinetic methods.

T1 sequence (P02786 89-760): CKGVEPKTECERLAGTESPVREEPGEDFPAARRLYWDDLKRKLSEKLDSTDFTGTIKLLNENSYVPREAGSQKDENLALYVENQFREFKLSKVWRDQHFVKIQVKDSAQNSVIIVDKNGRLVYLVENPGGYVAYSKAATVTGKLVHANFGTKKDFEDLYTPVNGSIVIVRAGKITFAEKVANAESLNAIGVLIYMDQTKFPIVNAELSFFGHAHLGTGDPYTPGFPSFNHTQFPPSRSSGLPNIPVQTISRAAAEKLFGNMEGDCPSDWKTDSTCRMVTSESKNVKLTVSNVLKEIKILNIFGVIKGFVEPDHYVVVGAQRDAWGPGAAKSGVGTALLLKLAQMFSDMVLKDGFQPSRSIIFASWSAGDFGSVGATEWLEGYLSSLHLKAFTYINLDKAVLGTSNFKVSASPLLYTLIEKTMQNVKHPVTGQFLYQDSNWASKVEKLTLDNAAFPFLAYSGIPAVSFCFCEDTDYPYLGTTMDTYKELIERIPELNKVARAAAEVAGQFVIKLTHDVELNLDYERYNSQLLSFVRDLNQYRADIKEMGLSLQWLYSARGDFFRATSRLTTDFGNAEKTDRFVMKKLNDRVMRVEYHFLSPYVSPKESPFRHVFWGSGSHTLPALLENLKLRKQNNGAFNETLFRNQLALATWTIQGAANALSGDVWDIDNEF

Kd	Binder
37.8 nM	B1
112 nM	B2
1550 nM	B3
84.3 nM	B4
38.6 nM	B5
115 nM	B6
64.8 nM	B7
39.2 nM	B8

molecular target: T2, rhesus monkey TfR ectodomain fused to a mouse IgG1 Fc fragment (rhesus monkey, UniProt I0FKY7 89-760); experiment: SPR, at equilibrium
T2 construct: extracellular domain; not shown: mouse IgG1 Fc fragment
Experimental: as §1

Kd	Binder
339 nM	B2
265 nM	B5
242 nM	B7
206 nM	B8
25.1 nM	B9

molecular target: T3, mouse TfR ectodomain fused to a mouse IgG1 Fc fragment (mouse, UniProt Q62351 89-763); experiment: SPR, kinetic
T3 construct: extracellular domain; not shown: mouse IgG1 Fc fragment
Experimental: as §1

T3 sequence (Q62351 89-763): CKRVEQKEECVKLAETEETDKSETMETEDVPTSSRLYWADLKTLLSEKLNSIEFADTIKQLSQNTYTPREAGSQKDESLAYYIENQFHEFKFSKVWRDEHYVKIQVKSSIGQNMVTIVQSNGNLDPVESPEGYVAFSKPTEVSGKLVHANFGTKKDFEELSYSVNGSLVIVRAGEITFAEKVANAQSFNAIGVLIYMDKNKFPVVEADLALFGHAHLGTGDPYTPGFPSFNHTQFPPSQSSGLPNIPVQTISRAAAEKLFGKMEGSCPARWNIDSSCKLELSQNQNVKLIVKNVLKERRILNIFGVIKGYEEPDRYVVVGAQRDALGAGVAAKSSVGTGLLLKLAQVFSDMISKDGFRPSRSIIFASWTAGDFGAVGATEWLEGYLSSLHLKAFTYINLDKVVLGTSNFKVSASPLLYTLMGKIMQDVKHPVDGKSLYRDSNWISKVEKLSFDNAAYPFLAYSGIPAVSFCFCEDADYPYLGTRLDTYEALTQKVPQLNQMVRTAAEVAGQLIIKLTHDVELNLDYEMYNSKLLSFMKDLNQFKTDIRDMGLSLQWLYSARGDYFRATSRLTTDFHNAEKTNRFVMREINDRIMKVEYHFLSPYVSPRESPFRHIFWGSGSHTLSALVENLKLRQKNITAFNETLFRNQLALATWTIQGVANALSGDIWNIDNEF

Kd	koff	kon	Binder
15.6 nM	0.00909 s⁻¹	581000 M⁻¹ s⁻¹	B10
301 nM	0.075 s⁻¹	251000 M⁻¹ s⁻¹	B6
1960 nM	0.0125 s⁻¹	6510 M⁻¹ s⁻¹	B11

molecular target: T1, human TfR ectodomain fused to a mouse …; experiment: SPR, kinetic
Experimental: as §1

Kd	koff	kon	Binder
4.55 nM	0.00357 s⁻¹	786000 M⁻¹ s⁻¹	B12
8.96 nM	0.00906 s⁻¹	1.5e+06 M⁻¹ s⁻¹	B13
43.3 nM	0.021 s⁻¹	487000 M⁻¹ s⁻¹	B1
0.985 nM	0.00105 s⁻¹	866000 M⁻¹ s⁻¹	B14
94 nM	0.03 s⁻¹	319000 M⁻¹ s⁻¹	B2
14.5 nM	0.00577 s⁻¹	459000 M⁻¹ s⁻¹	B15
10.6 nM	0.00582 s⁻¹	549000 M⁻¹ s⁻¹	B16
94.8 nM	0.0558 s⁻¹	504000 M⁻¹ s⁻¹	B4
35.8 nM	0.0247 s⁻¹	692000 M⁻¹ s⁻¹	B5
0.0333 nM	3.3e-05 s⁻¹	1.01e+06 M⁻¹ s⁻¹	B10
112 nM	0.0399 s⁻¹	360000 M⁻¹ s⁻¹	B6
47.5 nM	0.0182 s⁻¹	383000 M⁻¹ s⁻¹	B7
6.04 nM	0.0011 s⁻¹	183000 M⁻¹ s⁻¹	B11
33.3 nM	0.019 s⁻¹	571000 M⁻¹ s⁻¹	B8
0.984 nM	0.00169 s⁻¹	1.04e+06 M⁻¹ s⁻¹	B9

molecular target: T2, rhesus monkey TfR ectodomain fused to a …; experiment: SPR, kinetic
Experimental: as §1

Kd	koff	kon	Binder
373 nM	0.192 s⁻¹	515000 M⁻¹ s⁻¹	B2
358 nM	0.266 s⁻¹	745000 M⁻¹ s⁻¹	B5
234 nM	0.123 s⁻¹	524000 M⁻¹ s⁻¹	B7
12.1 nM	0.0119 s⁻¹	997000 M⁻¹ s⁻¹	B9

molecular target: T4, human transferrin receptor (hTfR) fused to EGFP, on CHO cells (human, UniProt P02786 1-760); experiment: apparent Kd, flow cytometry, CHO cells
T4 construct: whole, on cells; also called human TfR; CHO-hTfR-EGFP; not shown: EGFP from pEGFP-C1 vector, fused to the N-terminal (intracellular) end of hTfR
Experimental: (§2) The binding properties of VHHs with affinity for the TfR from different species (i.e., human (h), mouse (m) and rhesus monkey (rh)) were tested using flow cytometry, and apparent affinities (Kd app) were determined. All experiments were performed in 96 well plates using 2×10⁵ cells/well, at 4° C. with shaking. CHO cell lines expressing the hTfR, mTfR or rhTfR fused to EGFP were saturated with PBS/BSA 2% solution during 30 min to avoid nonspecific binding, followed by incubation with purified VHHs at increasing concentrations for 1 hr. After one wash in PBS/BSA 2%, cells were incubated for 1 hr with an anti-6His tag antibody (mouse), washed twice with PBS/BSA 2%, and incubated for 1 hr with an Alexa647-conjugated anti-mouse secondary antibody. After two last washes in PBS/BSA 2%, cells were fixed by incubation for 15 min with PBS/PFA 2%, washed once with PBS and finally resuspended in PBS. Fluorescence levels were assessed using an Attune NxT flow cytometer (Thermo Fisher Scientific). Experimental data were fitted with GraphPad Prism® software using a nonlinear fit to determine the apparent Kd constants. […] Table 5 hereafter summarizes apparent Kd obtained for the tested VHHs.

T4 sequence (P02786 whole entry, the tested form may be a part): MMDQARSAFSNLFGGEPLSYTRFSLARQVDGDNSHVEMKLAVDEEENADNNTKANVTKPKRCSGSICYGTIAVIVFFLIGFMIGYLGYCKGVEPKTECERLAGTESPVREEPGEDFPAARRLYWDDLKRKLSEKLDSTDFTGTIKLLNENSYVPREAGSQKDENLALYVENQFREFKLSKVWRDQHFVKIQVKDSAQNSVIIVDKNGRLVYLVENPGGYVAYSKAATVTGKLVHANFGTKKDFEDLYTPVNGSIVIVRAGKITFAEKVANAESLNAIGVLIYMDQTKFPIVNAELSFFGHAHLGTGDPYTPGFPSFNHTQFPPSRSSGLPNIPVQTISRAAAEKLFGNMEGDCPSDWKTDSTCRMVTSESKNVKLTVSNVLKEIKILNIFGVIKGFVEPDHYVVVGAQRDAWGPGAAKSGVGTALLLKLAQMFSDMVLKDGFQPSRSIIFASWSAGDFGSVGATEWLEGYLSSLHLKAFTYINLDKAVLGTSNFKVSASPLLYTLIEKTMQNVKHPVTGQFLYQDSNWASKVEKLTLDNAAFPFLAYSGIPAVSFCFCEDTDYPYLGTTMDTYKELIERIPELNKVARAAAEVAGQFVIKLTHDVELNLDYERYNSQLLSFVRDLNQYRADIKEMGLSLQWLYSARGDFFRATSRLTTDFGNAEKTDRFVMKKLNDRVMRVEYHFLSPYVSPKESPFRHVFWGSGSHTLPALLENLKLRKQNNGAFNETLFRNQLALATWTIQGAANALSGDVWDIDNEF

Kd	Binder
1860 nM	B17
3.8 nM	B12
4.9 nM	B13
12 nM	B1
4.1 nM	B14
31 nM	B2
4.7 nM	B15
777 nM	B3
6.1 nM	B16
23 nM	B4
66 nM	B5
1.9 nM	B10
23 nM	B6
11 nM	B7
692 nM	B18
192 nM	B11
14 nM	B19
24 nM	B20
31 nM	B21
27 nM	B8
4.7 nM	B9

molecular target: T5, rhesus monkey transferrin receptor (rhTfR) fused to EGFP, on CHO cells (rhesus monkey); experiment: apparent Kd, flow cytometry, CHO cells
T5 construct: whole, on cells; also called rhesus monkey TfR
Experimental: as §2

Kd	Binder
965 nM	B17
549 nM	B12
755 nM	B13
481 nM	B1
40 nM	B14
362 nM	B2
425 nM	B15
493 nM	B16
494 nM	B4
653 nM	B5
1.5 nM	B10
793 nM	B6
256 nM	B7
479 nM	B18
138 nM	B11
425 nM	B19
505 nM	B20
755 nM	B21
130 nM	B8
6.9 nM	B9

molecular target: T6, mouse transferrin receptor (mTfR) fused to EGFP, on CHO cells (mouse, UniProt Q62351 1-763); experiment: apparent Kd, flow cytometry, CHO cells
T6 construct: whole, on cells; also called mouse TfR; CHO-mTfR-EGFP; not shown: EGFP
Experimental: as §2

T6 sequence (Q62351 whole entry, the tested form may be a part): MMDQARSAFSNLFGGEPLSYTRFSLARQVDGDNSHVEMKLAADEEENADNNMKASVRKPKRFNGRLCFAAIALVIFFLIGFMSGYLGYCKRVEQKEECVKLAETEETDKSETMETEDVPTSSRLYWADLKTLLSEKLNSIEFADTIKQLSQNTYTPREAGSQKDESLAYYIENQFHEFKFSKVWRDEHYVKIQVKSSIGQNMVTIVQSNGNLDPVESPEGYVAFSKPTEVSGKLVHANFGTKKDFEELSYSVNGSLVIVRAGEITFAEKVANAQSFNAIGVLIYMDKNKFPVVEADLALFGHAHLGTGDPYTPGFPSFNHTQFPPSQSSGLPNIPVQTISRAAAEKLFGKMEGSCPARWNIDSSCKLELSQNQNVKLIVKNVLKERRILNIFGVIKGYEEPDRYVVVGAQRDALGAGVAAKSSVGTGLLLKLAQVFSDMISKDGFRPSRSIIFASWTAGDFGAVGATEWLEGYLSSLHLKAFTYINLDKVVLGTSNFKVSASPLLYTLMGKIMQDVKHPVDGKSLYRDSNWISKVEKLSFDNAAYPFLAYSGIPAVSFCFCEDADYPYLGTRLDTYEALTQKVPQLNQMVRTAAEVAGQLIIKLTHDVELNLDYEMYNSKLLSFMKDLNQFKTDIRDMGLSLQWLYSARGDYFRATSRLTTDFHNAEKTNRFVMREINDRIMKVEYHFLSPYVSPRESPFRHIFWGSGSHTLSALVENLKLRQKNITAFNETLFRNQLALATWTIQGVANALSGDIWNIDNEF

Kd	Binder
841 nM	B17
246 nM	B12
602 nM	B13
416 nM	B1
22 nM	B14
696 nM	B2
131 nM	B15
755 nM	B3
431 nM	B16
427 nM	B4
1740 nM	B5
56 nM	B10
622 nM	B6
445 nM	B7
409 nM	B18
313 nM	B11
2350 nM	B19
3320 nM	B20
2500 nM	B21
891 nM	B8
743 nM	B9
